Assay [1] has as its target human NOXO1 tandem SH3 domains (SH3AB) (human). In words: ITC; data not shown; peptides of the human NOXO1 C-terminal tail titrated against human NOXO1 SH3 domains.
The target is the same in assay [2]. Kind of assay: ITC; MicroCal VP-ITC, 18°C; 150 mM NaCl, 1 mM DTT, 50 mM HEPES pH 7.4; typically 20–40 µM protein in the cell, 200–300 µM ligand injected; single-site binding model; averaged over three to five experiments. (In general: ITC needs no label: the signal is the heat of the interaction.)

In the case of TAPPPTVPTRPSPGAIQSRCCTVTRRALE [peptideA (amino acids 319–347 of human NOXO1)], the Kd in assay [1] is 50 µM.
As to TAPPPTVPTRPS [shorter version of peptideA, which only contains the proline rich region], the Kd in assay [2] was determined as 50 µM.

By Kd is commonly meant the constant that tells how readily two partners part at equilibrium. Lower therefore signals higher affinity.

Values taken from article PMC2864300, “Regulation of NOXO1 Activity through Reversible Interactions with p22^phox and NOXA1” (PLoS ONE, 2010).
